This note sets out measurements from patent US20240368275A1 (ELPIS BIOPHARMACEUTICALS, published 2024).

Experiment [1] concerns the target T1, full-length human Nectin4 with C-terminal flag and Myc tags on CHO cells (human, UniProt Q96NY8 32-510).
T1 sequence (looked up): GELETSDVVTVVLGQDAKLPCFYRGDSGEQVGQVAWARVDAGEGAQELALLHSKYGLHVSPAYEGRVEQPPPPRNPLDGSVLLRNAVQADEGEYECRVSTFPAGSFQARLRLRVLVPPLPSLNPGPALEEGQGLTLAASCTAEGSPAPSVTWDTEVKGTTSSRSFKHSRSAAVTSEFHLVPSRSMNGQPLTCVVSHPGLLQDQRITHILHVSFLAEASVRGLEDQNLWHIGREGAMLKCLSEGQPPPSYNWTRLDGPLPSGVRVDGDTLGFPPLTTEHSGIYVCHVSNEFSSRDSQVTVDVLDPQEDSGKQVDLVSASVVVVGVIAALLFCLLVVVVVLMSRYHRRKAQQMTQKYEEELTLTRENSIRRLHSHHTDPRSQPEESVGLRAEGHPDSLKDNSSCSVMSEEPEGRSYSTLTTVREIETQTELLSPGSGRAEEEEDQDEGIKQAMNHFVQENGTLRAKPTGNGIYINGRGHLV
The experiment in a line: cell-based or functional assay.

In experiment [2] the target is T2, mouse nectin4 protein (mouse, UniProt Q8R007 31-347, limits assumed).
T2 sequence (looked up): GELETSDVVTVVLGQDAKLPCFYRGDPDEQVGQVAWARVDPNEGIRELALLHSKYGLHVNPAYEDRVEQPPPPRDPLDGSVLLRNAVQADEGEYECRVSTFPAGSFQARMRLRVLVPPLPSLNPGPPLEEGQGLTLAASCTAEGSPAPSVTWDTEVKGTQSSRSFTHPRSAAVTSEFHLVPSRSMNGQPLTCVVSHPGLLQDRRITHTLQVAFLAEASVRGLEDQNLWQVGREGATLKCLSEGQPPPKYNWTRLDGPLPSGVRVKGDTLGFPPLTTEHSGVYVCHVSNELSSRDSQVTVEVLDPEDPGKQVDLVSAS
The experiment is described as follows: ELISA, coated mouse nectin4, IgG titrated, anti-hFc HRP.

Experiment [3] concerns the target monkey nectin4 protein (monkey). The experiment in a line: ELISA, coated monkey nectin4, IgG titrated, anti-hFc HRP. For orientation: ELISA stands for enzyme-linked immunosorbent assay.
The target of experiment [4] is T3, human Nectin4-HIS tagged recombinant protein (human, UniProt Q96NY8 32-349).
T3 construct: also called hNectin4-HIS; Nectin4 HIS tagged protein; not shown: HIS tag
T3 sequence (looked up): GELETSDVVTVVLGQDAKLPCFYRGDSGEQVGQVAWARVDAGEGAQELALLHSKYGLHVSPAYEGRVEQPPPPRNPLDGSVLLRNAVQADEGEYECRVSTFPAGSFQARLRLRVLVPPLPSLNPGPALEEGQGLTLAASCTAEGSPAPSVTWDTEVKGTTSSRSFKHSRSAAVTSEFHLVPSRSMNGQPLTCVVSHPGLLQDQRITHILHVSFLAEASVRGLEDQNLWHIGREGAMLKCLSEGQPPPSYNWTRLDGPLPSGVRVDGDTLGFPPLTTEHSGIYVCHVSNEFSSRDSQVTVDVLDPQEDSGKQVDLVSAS
The experiment is described as follows: ELISA, coated human Nectin4-HIS, IgG titrated, anti-hFc HRP. How it is done: An ELISA assay was developed to determine the EC₅₀ of exemplary anti-Nectin4 IgG antibodies. Briefly, 384 well plate was immobilized with human Nectin4-HIS tagged recombinant protein at final concentration of 2 ug/mL in 1×PBS in total volume of 25 uL per well. The plate was incubated overnight at 4° C. followed by blocking with 80 uL of superblock per well for 1 hour. Titration of purified anti-Nectin4 IgG starting at 200 nM 2-fold serial dilution, 25 uL was added to human Nectin4 immobilized wells and incubated for 1 hour with shaking. The Nectin4 binding was detected by adding 25 uL of anti-hFc HRP diluted at 1:5000 in 1×PBST. In between each step, the plate was washed 3 times with 1×PBST in a plate washer. The plate was then developed with 20 ul of TMB substrate for 5 mins and stopped by adding 20 ul of 2N sulfuric acid. The plate was read at OD450 nm Biotek plate reader and then plotted in Prism 8.1 software.

Experiment [5] deals with T3, human Nectin4-HIS tagged recombinant …. The experiment in a line: ELISA, coated human Nectin4-HIS, antibody titrated, anti-hFc HRP.
In experiment [6] the target is T1, full-length human Nectin4 with …. The experiment is described as follows: flow cytometry, IgG on Nectin4/CHO cells, anti-hFc Alexa fluor 647. How it is done: 200 nM of purified anti-Nectin4 IgG antibodies were diluted in full medium and incubated with Nectin4/CHO and CHO cells in 96 wells plate on ice for 1 hour. Cells were spun down at 1200 rpm for 5 minutes at 4° C. to remove primary antibodies. Cells were then washed once with 200 uL of full medium per well. Samples were detected with anti-hFc Alexa fluor 647 by adding 100 uL of diluted secondary antibody and incubated at 4° C. for 30 minutes in the dark. Samples were spun down at 1200 rpm for 5 minutes at 4° C. and washed twice with 200 uL of 1×PBS per well. Reconstituted samples in 200 uL of 1×PBS and read on Attune NxT cytometer. Analysis was done by Attune NxT software plotting the overlay histogram of […] proteins binding onto both negative and target cell lines.
Background: Flow cytometry measures light scatter and fluorescence of single cells or particles in a stream.

The target of experiment [7] is T3, human Nectin4-HIS tagged recombinant …. The experiment is described as follows: SPR Biacore T200, IgG captured on Protein A chip, hNectin4-HIS injected. How it is done:
Kinetic analysis of anti-Nectin4 IgG has been assessed by the SPR technology with Biacore T200. The assay was run with Biacore T200 control software version 2.0. For each cycle, 1 ug/mL of anti-hNectin4-IgG was captured for 60 seconds at flow rate of 10 ul/min on flow cell 2 in 1×HBSP buffer on Protein A sensor chip. 2-fold serial hNectin4-HIS tagged protein was injected onto both reference flow cell 1 and anti-Nectin4 IgG captured flow cell 2 for 150 seconds at flow rate of 30 ul/mins followed by wash for 300 seconds. The flow cells were then regenerated with Glycine pH2 for 60 seconds at flow rate of 30 ul/mins. 8 concentration points from 100-0 nM was assayed per anti-Nectin4 IgG in a 96 well plate. The kinetics of Anti-Nectin4 IgG binding to Nectin4 protein was analyzed with Biacore T200 evaluation software version 3.0. The specific binding response unit was derived from subtraction of binding to reference flow cell 1 from antibody captured flow cell 2.

B1: 2020EP034-B09 IgG (EP299/EP289) (antibody, V domains shown)
VH: EVQLVQSGAEVKKPGASVKVSCKASGYTFTGYYMHWVRQAPGQGLEWMGRINPNSGGTNYAQKFQGRVTMTRDTSISTAYMELSGLRSDDTAVYFCARVTYNIGWYIDYWGQGTLVTVSS
VL: QAVVTQPPSVSVAPGKTATITCGGNNIGSKGVHWYQQKPGQAPVLVIYYDTDRPSGIPERLSGSNSGNTATLTISRVEAGDEADYYCQVWDSSSDHPVFGGGTKLTVLG
notes: Human IgG1 with lambda light chain; entries without signal peptide used; also called EP034-B09, mAb
Consider B1, for which, in experiment [1], the “ADCC Bioreporter assay EC50” value was determined as 1.16 nM. In addition, the EC50 (commonly the concentration needed to bring the measured effect to its halfway point) in experiment [2] was 0.017 nM; in experiment [3] it was 0.019 nM; in experiment [4] it was 0.018 nM; in experiment [5], 0.061 nM; in experiment [6] it was 0.0062 nM. For the same molecule, the Kd (usually the free concentration of one partner at which half of the binding sites on the other are occupied at equilibrium, for simple one-to-one binding) in experiment [7] stood at 1.47 nM.
